Assay [1] addresses PfRIPR tail (Plasmodium falciparum) (UniProt O97302). In words: SPR.
The target of assay [2] is PfRIPR (Plasmodium falciparum) (UniProt O97302). The assay is described as follows: SPR. (Surface plasmon resonance follows binding to a sensor surface in real time, without labels.)
Assay [3] has as its target full-length human basigin (human). The assay is described as follows: MST.
Assay [4] concerns the target basigin ectodomain (human). The assay is described as follows: MST.

One may read the Kd as the free concentration of one partner at which half of the binding sites on the other are occupied at equilibrium, for simple one-to-one binding. Lower therefore signals tighter binding.

On to PfCSS-PfPTRAMP complex, for which the Kd in assay [1] and in assay [2] was 3000 nM throughout.

For PfRH5 (natural protein), the Kd in assay [3] came to 120 nM; in assay [4], 190 nM.

The record behind these values is paper doi:10.1101/2023.01.30.526221.
